The target in this test is PAK I of frog (Lepidobatrachus laevis) oocytes, zygotes and embryos (frog (Lepidobatrachus laevis)). Description: cell-based or functional assay.

On to “GST-Cdc42Hs preloaded with GTPγS (from UniProt P60953 1-191)”, for which the degree of activation of inactive PAK I in DEAE-cellulose fractions (H4 phosphorylation) lay in the range of 6 to 7 fold.
